Source: patent publication US20100048462A1, “TRUNCATED PTH PEPTIDES WITH A CYCLIC CONFORMATION” (Zealand Pharma A/S, priority 2006, published 2010)
Where two headings read alike, the source gives them in different places. One block for each binder: values may come before it. Bridge positions count the residues as written; N and C are the ends. Square brackets hold non-standard residues; d marks the D form. hArg = N=C(N)NCCCC[C@H](N)C(=O)O; Ac5c = NC1(C(=O)O)CCCC1; Dap = NC[C@H](N)C(=O)O; Aib = CC(C)(N)C(=O)O

How the values were obtained:
Assay in all cases: cell-based or functional assay
[1] = target: Saos-2 PTH1R (UniProt Q03431)
[2] = target: CYP2D6 (Homo sapiens, UniProt P10635)
Sequence of CYP2D6 (P10635 whole entry): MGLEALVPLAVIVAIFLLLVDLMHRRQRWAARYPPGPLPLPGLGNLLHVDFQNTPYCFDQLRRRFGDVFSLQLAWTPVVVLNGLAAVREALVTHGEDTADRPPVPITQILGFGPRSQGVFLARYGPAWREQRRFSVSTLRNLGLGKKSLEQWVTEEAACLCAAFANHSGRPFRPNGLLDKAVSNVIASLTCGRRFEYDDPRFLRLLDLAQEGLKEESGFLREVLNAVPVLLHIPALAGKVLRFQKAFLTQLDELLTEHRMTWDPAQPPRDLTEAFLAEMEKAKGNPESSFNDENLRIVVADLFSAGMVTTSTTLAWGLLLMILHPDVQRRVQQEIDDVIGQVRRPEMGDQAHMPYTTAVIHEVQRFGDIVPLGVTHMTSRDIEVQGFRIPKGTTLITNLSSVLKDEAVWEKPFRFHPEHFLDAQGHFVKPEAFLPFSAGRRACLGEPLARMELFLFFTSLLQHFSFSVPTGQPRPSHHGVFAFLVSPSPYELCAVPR

[3] = target: PTH receptor 1 on MC3T3-E1 cells (murine) (UniProt P41593)

Emax, cAMP efficacy assay in Saos-2 cells (3T, trifluoroacetate salt) (relative to control (SEQ ID NO: 32)) [1]: 1.06
pEC50, cAMP efficacy assay in Saos-2 cells (3T, trifluoroacetate salt) [1]: 8.04 -log(M)
CYP2D6 activity (% of vehicle), dextrorphan formation rate in human liver microsomes, 10 µM peptide [2]: 21 % of vehicle
Emax, cAMP efficacy assay in MC3T3-E1 cells [3]: 5.5 pmol/well
agonist potency relative to SEQ ID NO: 2, cAMP in MC3T3-E1 cells [3]: 2 to 3 fold weaker
pEC50, cAMP efficacy assay in MC3T3-E1 cells [3]: 8.6 -log(M)
B1: H-Ac5c-Val-Aib-Glu-Ile-Gln-Leu-Met-His-Gln-Har-Ala-Lys-Trp-Leu-Asn-Asn-NH2 (peptide)
chain: H-[Ac5c]V[Aib]EIQLMHQ[hArg]AKWLNN-NH2
SMILES: CC[C@H](C)[C@H](NC(=O)[C@H](CCC(=O)O)NC(=O)C(C)(C)NC(=O)[C@@H](NC(=O)C1(N)CCCC1)C(C)C)C(=O)N[C@@H](CCC(N)=O)C(=O)N[C@@H](CC(C)C)C(=O)N[C@@H](CCSC)C(=O)N[C@@H](Cc1c[nH]cn1)C(=O)N[C@@H](CCC(N)=O)C(=O)N[C@@H](CCCCNC(=N)N)C(=O)N[C@@H](C)C(=O)N[C@@H](CCCCN)C(=O)N[C@@H](Cc1c[nH]c2ccccc12)C(=O)N[C@@H](CC(C)C)C(=O)N[C@@H](CC(N)=O)C(=O)N[C@@H](CC(N)=O)C(N)=O

Emax, cAMP efficacy assay in Saos-2 cells (9T, trifluoroacetate salt) (relative to control (SEQ ID NO: 32)) [1]: 1.03
pEC50, cAMP efficacy assay in Saos-2 cells (9T, trifluoroacetate salt) [1]: 7.85 -log(M)
CYP2D6 activity (% of vehicle), dextrorphan formation rate in human liver microsomes, 10 µM peptide [2]: 85 % of vehicle
B2: H-Ac5c-Val-Aib-Glu-Ile-Gln-Leu-Met-His-Gln-Har-Ala-Lys( )-Trp-Leu-Asn-Glu( )-NH2 (peptide)
chain: H-[Ac5c]V[Aib]EIQLMHQ[hArg]AKWLNE-NH2
modifications: lactam 13-17
SMILES: CC[C@H](C)[C@H](NC(=O)[C@H](CCC(=O)O)NC(=O)C(C)(C)NC(=O)[C@@H](NC(=O)C1(N)CCCC1)C(C)C)C(=O)N[C@@H](CCC(N)=O)C(=O)N[C@@H](CC(C)C)C(=O)N[C@@H](CCSC)C(=O)N[C@@H](Cc1c[nH]cn1)C(=O)N[C@@H](CCC(N)=O)C(=O)N[C@@H](CCCCNC(=N)N)C(=O)N[C@@H](C)C(=O)N[C@H]1CCCCNC(=O)CC[C@@H](C(N)=O)NC(=O)[C@H](CC(N)=O)NC(=O)[C@H](CC(C)C)NC(=O)[C@H](Cc2c[nH]c3ccccc23)NC1=O

Emax, cAMP efficacy assay in Saos-2 cells (7T, trifluoroacetate salt) (relative to control (SEQ ID NO: 32)) [1]: 1.2
pEC50, cAMP efficacy assay in Saos-2 cells (7T, trifluoroacetate salt) [1]: 7.3 -log(M)
CYP2D6 activity (% of vehicle), dextrorphan formation rate in human liver microsomes, 10 µM peptide [2]: 85 % of vehicle
B3: H-Ac5c-Val-Aib-Glu-Ile-Gln-Leu-Met-His-Gln-Har-Ala-Cys( )-Trp-Leu-Asn-Cys( )-NH2 (peptide)
chain: H-[Ac5c]V[Aib]EIQLMHQ[hArg]ACWLNC-NH2
modifications: disulfide 13-17
SMILES: CC[C@H](C)[C@H](NC(=O)[C@H](CCC(=O)O)NC(=O)C(C)(C)NC(=O)[C@@H](NC(=O)C1(N)CCCC1)C(C)C)C(=O)N[C@@H](CCC(N)=O)C(=O)N[C@@H](CC(C)C)C(=O)N[C@@H](CCSC)C(=O)N[C@@H](Cc1c[nH]cn1)C(=O)N[C@@H](CCC(N)=O)C(=O)N[C@@H](CCCCNC(=N)N)C(=O)N[C@@H](C)C(=O)N[C@H]1CSSC[C@@H](C(N)=O)NC(=O)[C@H](CC(N)=O)NC(=O)[C@H](CC(C)C)NC(=O)[C@H](Cc2c[nH]c3ccccc23)NC1=O

Emax, cAMP efficacy assay in Saos-2 cells (34T, trifluoroacetate salt) (relative to control (SEQ ID NO: 32)) [1]: 1.12
pEC50, cAMP efficacy assay in Saos-2 cells (34T, trifluoroacetate salt) [1]: 6.67 -log(M)
CYP2D6 activity (% of vehicle), dextrorphan formation rate in human liver microsomes, 10 µM peptide [2]: 57 % of vehicle
CYP2D6 activity (% of vehicle), dextrorphan formation rate in human liver microsomes, 10 µM peptide ([2]; record 2): 107 % of vehicle
B4: H-Ac5c-Val-Aib-Glu-Ile-Gln-Leu-Met-His-Asn-Leu-Gly-Lys-His-Leu-Asn-Asp-NH2 (peptide)
chain: H-[Ac5c]V[Aib]EIQLMHNLGKHLND-NH2
SMILES: CC[C@H](C)[C@H](NC(=O)[C@H](CCC(=O)O)NC(=O)C(C)(C)NC(=O)[C@@H](NC(=O)C1(N)CCCC1)C(C)C)C(=O)N[C@@H](CCC(N)=O)C(=O)N[C@@H](CC(C)C)C(=O)N[C@@H](CCSC)C(=O)N[C@@H](Cc1c[nH]cn1)C(=O)N[C@@H](CC(N)=O)C(=O)N[C@@H](CC(C)C)C(=O)NCC(=O)N[C@@H](CCCCN)C(=O)N[C@@H](Cc1c[nH]cn1)C(=O)N[C@@H](CC(C)C)C(=O)N[C@@H](CC(N)=O)C(=O)N[C@@H](CC(=O)O)C(N)=O

Emax, cAMP efficacy assay in Saos-2 cells (17T, trifluoroacetate salt) (relative to control (SEQ ID NO: 32)) [1]: 1.25
pEC50, cAMP efficacy assay in Saos-2 cells (17T, trifluoroacetate salt) [1]: 6.11 -log(M)
CYP2D6 activity (% of vehicle), dextrorphan formation rate in human liver microsomes, 10 µM peptide [2]: 101 % of vehicle
B5: H-Ac5c-Val-Aib-Glu-Ile-Gln-Leu-Leu-His-Gln-Har-Ala-Dpr( )-Trp-Leu-Asn-Asp( )-NH2 (peptide)
chain: H-[Ac5c]V[Aib]EIQLLHQ[hArg]A[Dap]WLND-NH2
modifications: lactam 13-17
SMILES: CC[C@H](C)[C@H](NC(=O)[C@H](CCC(=O)O)NC(=O)C(C)(C)NC(=O)[C@@H](NC(=O)C1(N)CCCC1)C(C)C)C(=O)N[C@@H](CCC(N)=O)C(=O)N[C@@H](CC(C)C)C(=O)N[C@@H](CC(C)C)C(=O)N[C@@H](Cc1c[nH]cn1)C(=O)N[C@@H](CCC(N)=O)C(=O)N[C@@H](CCCCNC(=N)N)C(=O)N[C@@H](C)C(=O)N[C@H]1CNC(=O)C[C@@H](C(N)=O)NC(=O)[C@H](CC(N)=O)NC(=O)[C@H](CC(C)C)NC(=O)[C@H](Cc2c[nH]c3ccccc23)NC1=O

Emax, cAMP efficacy assay in Saos-2 cells (19A/T, acetate/trifluoroacetate salts) (relative to control (SEQ ID NO: 32)) [1]: 1.05
pEC50, cAMP efficacy assay in Saos-2 cells (19A/T, acetate/trifluoroacetate salts) [1]: 7.99 -log(M)
CYP2D6 activity (% of vehicle), dextrorphan formation rate in human liver microsomes, 10 µM peptide [2]: 90 % of vehicle
Binder: H-[Ac5c]V[Aib]EIQLLHQ[hArg]AKWLND-NH2 (lactam 13-17; also: acetate and trifluoroacetate salts) [H-Ac5c-Val-Aib-Glu-Ile-Gln-Leu-Leu-His-Gln-Har-Ala-Lys( )-Trp-Leu-Asn-Asp( )-NH2]
